Source: the supplement of paper PMC9170038

system: K4 kissing-loop RNA reporter; experiment: apparent KD of K4 kissing-loop reporter; higher = weaker reporter binding; conditions: Eterna round: R107; input ligand: FMN 200 uM
Method: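 RNA-MaP round R107: designed RNA switches with theophylline, tryptophan, arginine or FMN aptamers are transcribed on-chip within common flanks. They are titrated with a labelled K4 kissing-loop RNA reporter in RNA-MaP buffer (100 mM Tris pH 7.5, 80 mM KCl, 4 mM MgCl2), without ligand or with the indicated ligand. Median apparent KD per design.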
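Further: bound reporter read as fluorescence of individual clusters on recovered sequencing chips by microscopy, with normalized cluster intensities fitted with a binding model.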

Sequence | apparent KD of K4 kissing-loop reporter
UGUCAUUGGUCUGAUACCAGUACCCUUGGCAGCCAAGGAGUGAUGUUCCAAGGAUACCAGUACCCUUGGCAGCAGACCGAUGACU [TheoBS 25 #DoubleAptamer #SwitchBubble] | 884 nM
GCCGUACGCAUGGAUACCAGCAGAACUGCCCUCCCAGUGAUGUUGGGAGGAUCUUUCCUUUGCCCUUGGCAGCCAUGCGUACGGC | 126 nM
AAAAUAAACCAGUGAUGUUGGUAUCCGGAUACCAGCGAUAAUCAUCGCCCUUGGCAGCCGCGGACGUACAAAAUAAGUACGUCCU [MatMod 14 - Jieux - Same State - Theophylline A] | 208 nM
CUCUAACUGAGAAGGAGCGCGAUAUAAACACUCGCACAGUGAUGUUGUGUGUCAAGGGUAUCGCAGGUAGGUCGCUCAGAUACCU [Arg B SS t15] | 294 nM
ACUUUGGGCCCAGUGAUGUUGGGUCCAGAUACCAGACGUAAAUAAGUCCCUUGGCAGCUGCGUACUAACUAGCACAGGAGGGUCC [Edleaes] | 135 nM
UGUCAUUGGUCUGAUACCAGUCCCUUGGCAGCCAAAUGGAGUGAUGUUCCAAGGAUACCAGACCCUUGGCAGCAGACCGAUGACU [TheoBS 26 #DoubleAptamer #SwitchBubble] | 556 nM
GUGGCACGAAAGUGCCACGCAUCCUCUCCCUAGGAUAUCUGGAAACAGAGAAGGAGGUCAUGAGUGAUGUUCAUCCAGAGGAUGC | 258 nM
GAGGUGGAGUGAUGUUCCACACUCGCUAGUAAGGAUAUGGCUGCUUCCAGAAGGUACCUAGAUUCAGUGUGCAUCAGUAACGUGC [theeternabot_exclusion_KL_FMN_A_4] | 95.2 nM
GCGUAGAUUAGCAGUGAUGUUGCUACGGAAGGAGCGCGUGAAAACGCAGGUAGGUCGCCGACAAAAUUAAUUUUAAUGUCUGCGC [KL-SSArg-A6] | 469 nM
GUUACGCAUGGAAGGAGCGCAGGCUCAACUUGAAGCUCAGUGAUGUUGAGCAAAUUAAAACUGCAGGUAGGUCGCCAUGUGUAAC [Ex Arginine B K4 27] | 548 nM
ACGUGCACCAGUGAUGUUGGAAAAUAUGAAGGAGCGGGUGAAAACCCAGGUAGGUCGCAUAAUAGCACGAGCCACGAAAGUGGCA | 125 nM
GUUAUGGACCUGGAUACCAGCUGGUACAAGGUCGGUCUACAUGAGUGAUGUUCAUGUGUCAGCCCUUGGCAGCCAGCAACCGGCA [KL-XTheo-B10] | 90.3 nM
CCUUGAGAGUGAUGUUCUCGAGUGAAAGUCAAGGAUAUCCCGCGGUGGAGAAGGUGAUGGCGAACUUGACUGCUGUCAGUCCUAA [theeternabot_exclusion_KL_FMN_A_10] | 104 nM
AUUUAAUUAACUGAUACCAGACUUUUUGUUUUGUUUAUUACUAGUGAUGUUAGUGUUUCUGUCCCUUGGCAGCAGAAUCUACUUA [JR_ExcTheophyB_Sub019] | 172 nM
GGGAAGGAGUGAUGUUUCUUCUGAAUUUCUAAGGAUAUACGAUGCGGUAGAAGGUAGAUGCCUUGCAGGAAAUGUUCACCACGCG [theeternabot_exclusion_KL_FMN_A_2] | 218 nM
ACCUACGAUCACAAUAGUGAUUGUAGGAACUAGGAUAUGCUGAAAAGCAGAAGGAGUGAUGUUCCAACUCAUGAAUAACAUGAGA [FmnAX 2 #OpenEnded #K4Late] | 536 nM
AAAAUAAUCCAGUGAUGUUGGUCUCCAGAUACCAGCGACGAAAGUCGCCCUUGGCAGCUGUGGACGUACAAAAUAAGUACGUCCU | 366 nM
AGGGUAAGGCGUUAACAUGACACCUGGGAAGGAGCGCGGUACACCGCAGGUAGGUCGCCCAGUGAUGUUGGGCGUAAGUAUGAGU [KL-XArg-A22] | 137 nM
AUUCAGAUCUGAAGGAGCGCCUUGACAAAUUACUGCUUUGAGCAGUGAUGUUGCUCAAUUAGGCAGGUAGGUCGCAGAUCUAACC [Arg B Ex t7] | 377 nM
AAAAUAAAGCAGUGAUGUUGCAUAUGAGAAGGAGCGCACGAAAGUGCAGGUAGGUCGCUCAGCCAAGUGGACGAAAACGUCCACA [#OpenEnded 9 #K4Early] | 107 nM
GCCGUAGAUUGAAGGAGCGGGAGAGGGAAAGUGAUGUUUUCUCUAUGACGGCGUCCUCGAUCCCAGGUAGGUCGCAAUCUACGGC | 137 nM
AAAAUAAACCAGUGAUGUUGGUAACCAGAUACCAGCGACGAAAGUCGCCCUUGGCAGCUGUGGACGUACAAAAUAAGUACGUCCU | 218 nM
GAAUAAUAACAUGAGUGAUGUUCAUGUAAACGAGGACCGGUACGGCCGCCACUCGAACCUCAUGUAAGCCGUACCAAUAACAAUA [KL-XTryp-A4 #analogue] | 115 nM
AUUAAUAACUGAGGAUAUCGUUUUACUGUAGUGAUGUUACAGAAAGUUCAAAUUAUAAUUUCUAUUCGAGAAGGCAGAAUAAUUA [JR_SSFMNB_Sub026] | 77.7 nM
UUUCGUCUCUGAGGAUAUCAGACGAGAGUGAUGUUCUCCCAAAGCCCAGUGAUGUUGGAUGCUAUCUGAGAAGGCAGUGGGCGAA [Same State FMN B GF 12] | 227 nM
GGCGAAUAAAAUCGCCUAGAGAGAAAGGAUACCAGCACCCGGCGGUGCCCUUGGCAGCCUAGCCCAGUGAUGUUGGGUCCUCUAA [Biaveinbe] | 263 nM
ACGUCUUGUAAACUCGUGGUUUCGAUCGAUACCAGUAGCGAGAGUUACCCUUGGCAGCGACAUGAGUGAUGUUCAUGUACGAAGA [KL-XTheoA3] | 98.6 nM

same assay, conditions: Eterna round: R107; input ligand: arginine 13.2 mM

Sequence | apparent KD of K4 kissing-loop reporter
UGUCAUUGGUCUGAUACCAGUACCCUUGGCAGCCAAGGAGUGAUGUUCCAAGGAUACCAGUACCCUUGGCAGCAGACCGAUGACU [TheoBS 25 #DoubleAptamer #SwitchBubble] | 802 nM
GCCGUACGCAUGGAUACCAGCAGAACUGCCCUCCCAGUGAUGUUGGGAGGAUCUUUCCUUUGCCCUUGGCAGCCAUGCGUACGGC | 112 nM
AAAAUAAACCAGUGAUGUUGGUAUCCGGAUACCAGCGAUAAUCAUCGCCCUUGGCAGCCGCGGACGUACAAAAUAAGUACGUCCU [MatMod 14 - Jieux - Same State - Theophylline A] | 135 nM
CUCUAACUGAGAAGGAGCGCGAUAUAAACACUCGCACAGUGAUGUUGUGUGUCAAGGGUAUCGCAGGUAGGUCGCUCAGAUACCU [Arg B SS t15] | 247 nM
ACUUUGGGCCCAGUGAUGUUGGGUCCAGAUACCAGACGUAAAUAAGUCCCUUGGCAGCUGCGUACUAACUAGCACAGGAGGGUCC [Edleaes] | 143 nM
UGUCAUUGGUCUGAUACCAGUCCCUUGGCAGCCAAAUGGAGUGAUGUUCCAAGGAUACCAGACCCUUGGCAGCAGACCGAUGACU [TheoBS 26 #DoubleAptamer #SwitchBubble] | 397 nM
GUGGCACGAAAGUGCCACGCAUCCUCUCCCUAGGAUAUCUGGAAACAGAGAAGGAGGUCAUGAGUGAUGUUCAUCCAGAGGAUGC | 677 nM
GAGGUGGAGUGAUGUUCCACACUCGCUAGUAAGGAUAUGGCUGCUUCCAGAAGGUACCUAGAUUCAGUGUGCAUCAGUAACGUGC [theeternabot_exclusion_KL_FMN_A_4] | 96.3 nM
GCGUAGAUUAGCAGUGAUGUUGCUACGGAAGGAGCGCGUGAAAACGCAGGUAGGUCGCCGACAAAAUUAAUUUUAAUGUCUGCGC [KL-SSArg-A6] | 448 nM
GUUACGCAUGGAAGGAGCGCAGGCUCAACUUGAAGCUCAGUGAUGUUGAGCAAAUUAAAACUGCAGGUAGGUCGCCAUGUGUAAC [Ex Arginine B K4 27] | 474 nM
ACGUGCACCAGUGAUGUUGGAAAAUAUGAAGGAGCGGGUGAAAACCCAGGUAGGUCGCAUAAUAGCACGAGCCACGAAAGUGGCA | 138 nM
GUUAUGGACCUGGAUACCAGCUGGUACAAGGUCGGUCUACAUGAGUGAUGUUCAUGUGUCAGCCCUUGGCAGCCAGCAACCGGCA [KL-XTheo-B10] | 97.1 nM
CCUUGAGAGUGAUGUUCUCGAGUGAAAGUCAAGGAUAUCCCGCGGUGGAGAAGGUGAUGGCGAACUUGACUGCUGUCAGUCCUAA [theeternabot_exclusion_KL_FMN_A_10] | 105 nM
AUUUAAUUAACUGAUACCAGACUUUUUGUUUUGUUUAUUACUAGUGAUGUUAGUGUUUCUGUCCCUUGGCAGCAGAAUCUACUUA [JR_ExcTheophyB_Sub019] | 297 nM
GGGAAGGAGUGAUGUUUCUUCUGAAUUUCUAAGGAUAUACGAUGCGGUAGAAGGUAGAUGCCUUGCAGGAAAUGUUCACCACGCG [theeternabot_exclusion_KL_FMN_A_2] | 146 nM
ACCUACGAUCACAAUAGUGAUUGUAGGAACUAGGAUAUGCUGAAAAGCAGAAGGAGUGAUGUUCCAACUCAUGAAUAACAUGAGA [FmnAX 2 #OpenEnded #K4Late] | 252 nM
AAAAUAAUCCAGUGAUGUUGGUCUCCAGAUACCAGCGACGAAAGUCGCCCUUGGCAGCUGUGGACGUACAAAAUAAGUACGUCCU | 416 nM
AGGGUAAGGCGUUAACAUGACACCUGGGAAGGAGCGCGGUACACCGCAGGUAGGUCGCCCAGUGAUGUUGGGCGUAAGUAUGAGU [KL-XArg-A22] | 179 nM
AUUCAGAUCUGAAGGAGCGCCUUGACAAAUUACUGCUUUGAGCAGUGAUGUUGCUCAAUUAGGCAGGUAGGUCGCAGAUCUAACC [Arg B Ex t7] | 335 nM
AAAAUAAAGCAGUGAUGUUGCAUAUGAGAAGGAGCGCACGAAAGUGCAGGUAGGUCGCUCAGCCAAGUGGACGAAAACGUCCACA [#OpenEnded 9 #K4Early] | 172 nM
